From PMC11987610, “Pseudomonas aeruginosa PfpI is a methylglyoxalase” (The Journal of Biological Chemistry, 2025) come the findings set out here.

Data set [1] deals with Pseudomonas aeruginosa PfpI (PA0355), recombinant, N-terminal His6 tag (P. aeruginosa PAO1). Kind of data set: AUC; sedimentation velocity; 25 mM Tris-HCl (pH 8.0), 100 mM NaCl; 0.5, 1.0 and 2.0 mg/ml PfpI; 20 C, 24 h.
Data set [2] concerns the target T1, YhbO (Escherichia coli, UniProt P45470).
T1 construct: full-length ORF with N-terminal His6 tag (pET-19m), E. coli Rosetta (DE3); tagged mass 20,858 Da
T1 sequence (P45470 1-172): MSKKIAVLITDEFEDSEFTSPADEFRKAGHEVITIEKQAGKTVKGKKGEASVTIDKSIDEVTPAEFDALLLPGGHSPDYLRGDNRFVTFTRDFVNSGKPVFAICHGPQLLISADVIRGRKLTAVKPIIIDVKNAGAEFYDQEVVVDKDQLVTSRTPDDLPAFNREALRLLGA
As to the kind of experiment: 1D 1H NMR of end products. The format is biochemical. To be noted: 1 mM MGO, 20 μg enzyme, 50 mM PBS with 5% DMSO-d6, overnight, 4 °C.

Substrate in data set [3]: CC(=O)C=O
Kind of data set: colorimetric lactate assay after heat quench, Michaelis-Menten fit. The format is biochemical, Pseudomonas aeruginosa. To be noted: PBS, 37 °C, 0.2 μM enzyme, glutathione-independent.

For orientation: stoichiometry N means the number of molecules, sites or subunits per partner or assembly. As to “Pseudomonas aeruginosa PfpI (PA0355), recombinant, N-terminal His6 tag (enzyme)”, the stoichiometry N in data set [1] turned out to be 2.

On to `CC(=O)C=O` [methylglyoxal], for which the “1D 1H NMR of end products” value in data set [2] is “both enzymes quantitatively convert MGO to lactate”.

B1: PfpI (Pseudomonas aeruginosa PAO1) (protein)
chain: MTQSLHGKVVAALVTDGFEQVELTGPKKALEDAGATVRILSDKAGEVRGWNHHQPAEAFRVDGTFEDASLDDYDALLLPGGVINSDQIRSLAKAQELAIRAEQASKPVAVICHGAWLLISAGLVQGRTLTSWPSLKDDINNAGGHWVDQEVAVDGKLVSSRKPEDIPAFNRRFIEILAG
notes: full-length ORF (540 bp) with N-terminal His6 tag (pET-19m), E. coli Rosetta (DE3); tagged mass 21,246 Da
What is called Km is the substrate concentration at which the rate is half of its maximum. What is called kcat is the maximal rate divided by the concentration of active sites. As to B1, in data set [3], the Km was 369 ± 139 µM and the kcat was found to be 1.72 ± 0.367 s⁻¹.
